Results: patent US8178319B2, “Peptides and uses thereof” (priority 2008, dated 2012)

Legend:
[1] = tested on: wheat-germ agglutinin isolated B-domain (WGA-B); details: monovalent form of wheat-germ agglutinin (B-domain); Espinosa et al, 2000; cited from earlier work
[2] = tested on: human type 0 erythrocytes; assay: Hemagglutination activity with human type 0 erythrocytes; type: cell-based; details: 2% human type 0 erythrocytes in PBS, room temperature, 1 h; for minimum lectin concentration that gave hemagglutination (molar): approximate conversion of μg/ml
Experimental: The hemagglutination activity of full length rAAL and Mono-F2 (SEQ ID NO: 4) was determined by serial dilutions of the lectins in PBS and mixing with an equal volume (50μL) of 2% human type 0erythrocytes suspended in PBS. After incubation at room temperature for 1h the minimum lectin concentration that gave a positive reaction was determined.

[3] = Affinity chromatography on fucose-agarose column; type: binding
Experimental: Purified Mono-F2 (SEQ ID NO: 4) was analyzed on a 1 mL fucose-agarose column (Sigma-Aldrich, Stockholm, Sweden). The column was equilibrated with 20mL PBS. Mono-F2 (SEQ ID NO: 4) was added and the column was incubated for 20 minutes at 4° C. with gentle rocking. After incubation the column was washed with PBS until the absorbance at 280 nm had reached zero. Elution was performed with 4 mL of 0.15 M L-fucose in PBS, 4 mL of 1 M L-fucose in PBS, and lastly with glycine buffer pH 2.5. Fractions (1 mL) were collected with monitoring of absorbance at 280 nm. The fractions were further analysed by SDS-PAGE.

[4] = Oligosaccharide affinity chromatography on silica column with immobilized Mono-F2; type: binding, human
Experimental: FIG. 5 - chromatograms of some fucosylated human milk oligosaccharides (LNnF I, LNF II and LNF III) and a non-fucosylated control (LNT) on a silica column with immobilized Mono-F2 (SEQ ID NO: 4).
Mono-F2 (SEQ ID NO: 4) was immobilized on silica particles (5μM, 300 Å) and packed in an affinity column (50×0.32 mm) and chromatography of a number of oligosaccharides were examined. […] Elutions of oligosaccharides were detected by UV absorbance at 210 nm.

[5] = ELISA binding of biotinylated lectin to oligosaccharide glycoconjugates; details: for ELISA binding to non-fucosylated oligosaccharide LNT: LNT-BSA coated wells, absorbance 405 nm; for ELISA binding specificity towards fucosylated oligosaccharides: LNnF I, LNF II, LNF III, B-tri, SLex, SLea conjugates, absorbance 405 nm (FIG. 7)
Experimental: Purified Mono-F2 (SEQ ID NO: 4) and full length rAAL were biotinylated using IMMUNOPROBE™ Biotinylation Kit (Sigma-Aldrich, Stockholm, Sweden) according to the manufacturer's instruction. The biotin/protein ratio was determined to 1.1 biotin moieties per protein molecule for both Mono-F2 (SEQ ID NO: 4) and rAAL. Microtiter plates (Nunc MaxiSorp™ eBioscience, San Diego, CA) were coated with 0.2 μg of LNnF I-BSA, LNF II-BSA, LNF III-HSA, LNT-BSA; 0.1 μg of B-tri-HSA, SLex-HSA and SLea-HSA in 100 μL coating buffer (15 mM Na2CO3, 35 mM NaHCO3, 0.02% NaN3, pH 9.6). Then 100 μL of biotinylated Mono-F2 (SEQ ID NO: 4) or full length rAAL was added to the wells. After addition of ExtrAvidin (E-2632 Sigma-Aldrich, Stockholm, Sweden) and phosphatase substrate (Sigma 104®, Sigma-Aldrich, Stockholm, Sweden) the amount of Mono-F2 (SEQ ID NO: 4) or full length AAL binding to each well were measured at 405 nm using a VERSAmax microplate reader (Molecular Devices Corporation, Sunnyvale, CA).
To analyze whether the His-tag on Mono-F2 (SEQ ID NO: 4) affected the fucose binding the ELISA analysis was also performed using Mono-F2 (SEQ ID NO: 4) pre-treated with thrombin protease to remove the His-tag. Biotin labelled Mono-F2 (SEQ ID NO: 4) (50μg) in PBS was incubated with 2 units of thrombin protease (Amersham Biosciences, Uppsala, Sweden) for 2 hours at room temperature.

Molecule	minimum lectin concentration that gave hemagglutination [2] [µg/mL]	minimum lectin concentration that gave hemagglutination (molar) [2] [µM]	ELISA binding to non-fucosylated oligosaccharide LNT [5]	ELISA binding specificity towards fucosylated oligosaccharides [5]	also measured
CC(=O)N[C@H]1[C@H](O[C@H]2[C@H](O)[C@@H](NC(C)=O)C(O)O[C@@H]2CO)O[C@H](CO)[C@@H](O[C@@H]2O[C@H](CO)[C@@H](O)[C@H](O)[C@H]2NC(C)=O)[C@@H]1O (stereo partly drawn) [chitotriose, N,N′, N″-triacetylchitotriose]					binding affinity [1]: millimolar range
Mono-F2: Recombinant His-tagged monovalent fucose-binding fragment of Aleuria aurantia lectin, site 2 (AAL aa 51-161) (protein, listed as Aleuria aurantia, His tag) SQNVIGEAKLFSPLAAVTWKSAQGIQIRVYCVNKDNILSEFVYDGSKWITGQLGSVGVKVGSNSKLAALQWGGSESAPPNIRVYYQKSNGSGSSIHEYVWSGKWTAGASFG	> 200	> 14	only low background binding	binding only non-sialylated oligosaccharide structures with α1-2 or α1-4 linked fucose	elution from fucose-agarose column with 0.15 M L-fucose ([3]; 4 mL of 0.15 M L-fucose in PBS): could not be eluted; elution from fucose-agarose column with 1 M L-fucose ([3]; 4 mL of 1 M L-fucose in PBS): Very little was eluted; binding to immobilized fucose (conclusion; low-pH buffer needed for full elution) ([3]; glycine buffer pH 2.5 needed for full elution): high affinity binding to fucose; retention of non-fucosylated LNT on immobilized Mono-F2 column ([4]; LNT (non fucosylated) control): not bound to the column; retention of fucosylated oligosaccharides LNF I, LNF II and LNF III on immobilized Mono-F2 column ([4]; increasing retention times LNF I, LNF II, LNF III, UV 210 nm): retarded on the column
Mono-F2-T: Mono-F2 pre-treated with thrombin protease to remove the His-tag (protein, listed as Aleuria aurantia, His-tag removed by thrombin) SQNVIGEAKLFSPLAAVTWKSAQGIQIRVYCVNKDNILSEFVYDGSKWITGQLGSVGVKVGSNSKLAALQWGGSESAPPNIRVYYQKSNGSGSSIHEYVWSGKWTAGASFG					ELISA binding compared with non-treated Mono-F2 ([5]; LNnF I-, LNF II- and LNF III-BSA conjugates, His-tag removed with thrombin (FIG. 8)): identical binding
rAAL: Recombinant full length His-tagged Aleuria aurantia lectin (protein, UniProt P18891 2-313, looked up, His-tag, Recombinant full length His-tagged Aleuria aurantia lectin) Fucose-specific lectin: PTEFLYTSKIAAISWAATGGRQQRVYFQDLNGKIREAQRGGDNPWTGGSSQNVIGEAKLFSPLAAVTWKSAQGIQIRVYCVNKDNILSEFVYDGSKWITGQLGSVGVKVGSNSKLAALQWGGSESAPPNIRVYYQKSNGSGSSIHEYVWSGKWTAGASFGSTVPGTGIGATAIGPGRLRIYYQATDNKIREHCWDSNSWYVGGFSASASAGVSIAAISWGSTPNIRVYWQKGREELYEAAYGGSWNTPGQIKDASRPTPSLPDTFIAANSSGNIDISVFFQASGVSLQQWQWISGKGWSIGAVVPTGTPAGW	2.5	~0.071	only low background binding	bound to all fucosylated oligosaccharides	
